Assay [1] deals with T1, Human BAFF (residues 82-285) (human, UniProt Q9Y275 82-285).
T1 construct: also called BAFF82-285
Kind of assay: SPR (BIAcore 3000), BAFF immobilized, receptor as analyte. A general note: Surface plasmon resonance follows binding to a sensor surface in real time, without labels.
Experimental: Measurement of binding constants for receptors to ligands. […] CM5 chips from BIAcore were docked according to manufacturer instructions. Then, BIAcore system was primed with 0.2 μm filtered buffer containing 10 mM Hepes pH 7.2, 150 mM NaCl, 0.005% Tween20. After buffer priming, the flow cells were normalized with 70% glycerol. Each flow cell surface was activated individually in preparation for linkage of the ligand to the chip with a 1:1 mixture of EDC(N-ethyl-N′-(3-dimethyl aminopropyl)-carbodiimide hydrochloride) and NHS(N-hydroxysuccinimide). […] Generally, the ligand to be immobilized (30 μg/ml in 10 mM NaOAc, pH 5 buffer) was injected into the system at 40 μl/min. Once approximately 400 RU was generated, the flow cell was blocked with ethanolamine. […] The system was then primed again.
The ligand-receptor complex was allowed to dissociate by washing the flow cell at 30 μl/min for 600 seconds. Alternatively, if several binding measurements over the same flow cell were to be performed, the ligand-receptor complex was allowed to dissociate by washing the flow cell at 30 μl/min for 900 seconds. Sensorgrams were recorded for each binding assay. A 1:1 Langmuir binding equation was used to simultaneously fit the association and dissociation rates of the ligand-analyte interactions. kₐ, kd, KD were calculated using curve fit analysis software provided with the BiaCore instrument

Assay [2] addresses Murine APRIL (K104-L241) thioredoxin fusion protein (murine) (UniProt Q9D777). Put plainly: SPR (BIAcore 3000), APRIL immobilized, receptor as analyte, 1:1 model.
Assay [3] deals with T1, Human BAFF (residues 82-285). Kind of assay: competition ELISA; immobilized BAFF, biotinylated miniBR3 tracer (FIG. 7). A general note: An ELISA detects its analyte on a solid surface through an enzyme-linked reagent.
Experimental: The plate was washed with PBS and blocked for 1 hr with 200 μl of 0.2% BSA in PBS at room temperature. […] The plate was washed with PBS/Tween-20 and incubated with 100 μl/well of 0.1 U/ml Streptavidin-POD (Boehringer Mannheim) for 15 minutes at room temperature. After washing the plate with PBS/0.05% Tween-20 followed by a final wash in PBS, the plate was incubated for 5 min with 100 μl/well PBS substrate solution containing 0.8 mg/ml OPD (Sigma) and 0.01% H₂O₂.

Where no end group is shown, it is not given here.

T1 sequence (Q9Y275 82-285): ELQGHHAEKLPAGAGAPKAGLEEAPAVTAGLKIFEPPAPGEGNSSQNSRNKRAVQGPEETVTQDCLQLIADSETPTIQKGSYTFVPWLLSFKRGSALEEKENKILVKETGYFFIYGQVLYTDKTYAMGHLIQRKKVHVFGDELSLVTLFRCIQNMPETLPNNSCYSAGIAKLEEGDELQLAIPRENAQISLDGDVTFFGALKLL
Sequence of Murine APRIL (K104-L241) thioredoxin fusion protein (murine) (Q9D777 104-241, form in doubt): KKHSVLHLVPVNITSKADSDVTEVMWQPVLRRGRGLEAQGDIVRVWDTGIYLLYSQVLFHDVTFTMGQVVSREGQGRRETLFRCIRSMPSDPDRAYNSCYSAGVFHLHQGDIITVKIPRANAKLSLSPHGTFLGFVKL

B1: BCMA ECD from baculovirus expression (human BCMA residues 4-53, His-tagged) (receptor, not shown: small tags and cut ends)
chain: MAGQCSQNEYFDSLLHACIPCQLRCSSNTPPLTCQRYCNASVTNSVKGTN
modifications: not fully specified (N-terminus); ends and bridges not checked; also: mixture of glycosylated and non-glycosylated species
notes: also called BCMA(baculovirus); baculovirus BCMA
For B1, the binding result in assay [1] was “no binding (tested: analyte 6.25 nM to 200 nM)”.

B2: BCMA-Fc (BCMA(wt)-Fc immunoadhesin) (Fc fusion, not shown: a dimerising Fc or GST)
chain: AGQCSQNEYFDSLLHACIPCQLRCSSNTPPLTCQRYCNASVTNSVKG
notes: also called wt BCMA-Fc; BCMA-Fc wt
In turn, B2 had a koff in assay [2] of 0.0001 s⁻¹. For the same molecule, in assay [3], the IC50 was 7 to 10 nM.

For orientation: koff means a measure of how fast the partners let go of each other. A higher koff goes with fast dissociation. As a reminder, the IC50 is the concentration at which inhibition is half-maximal.

For the origin of these results see US20090297504A1 (published 2009).
